Source: patent publication US20140220017A1 (published 2014)

How the values were obtained:
human IgG Fc [1] = target: human IgG Fc (human); test: QCM; pH 6
mouse IgG Fab [2] = target: mouse IgG Fab (mouse); test: QCM; pH 6
human IgG [3] = target: human IgG (human); test: QCM; pH 6
human IgG Fab [4] = target: human IgG Fab (human); test: QCM; pH 6
mouse IgG [5] = target: mouse IgG (mouse); test: QCM; pH 6
mouse IgG Fc = mouse IgG Fc (mouse); test: QCM; pH 7.4
human IgG Fc [6] = target: human IgG Fc (human); test: QCM; pH 7.4
mouse IgG Fab [7] = target: mouse IgG Fab (mouse); test: QCM; pH 7.4
human IgG [8] = target: human IgG (human); test: QCM; pH 7.4
human IgG Fab [9] = target: human IgG Fab (human); test: QCM; pH 7.4
mouse IgG [10] = target: mouse IgG (mouse); test: QCM; pH 7.4

Kd (human IgG Fc [1]): 3.6 nM
Kd (mouse IgG Fab [2]): 190 nM
Kd (human IgG [3]): 5 nM
Kd (human IgG Fab [4]): 150 nM
Kd (mouse IgG [5]): 46 nM
Kd (mouse IgG Fc): 24 nM
Kd (human IgG Fc [6]): 10 nM
Kd (mouse IgG Fab [7]): 190 nM
Kd (human IgG [8]): 6 nM
Kd (human IgG Fab [9]): 190 nM
Kd (mouse IgG [10]): 58 nM
B1: SpGC3 (other)
chain: DAAQPAMAQVKLQQSGAELVRSGTSVKLSCTASGFNIKDSYMHWLRQGPEQGLEWIGWIDPENGDTEYAPKFQGKATFTTDTSSNTAYLQLSSLTSEDTAVYYCNEGTPTGPYYFDYWGQGTTVTVSSGGGGSDIQMTQSPSSLSASVGDRVTITCRASQDIRNYLNWYQQKPGKAPKLLIYYTSRLESGVPSRFSGSGSGTDYTLTISSLQPEDFATYYCQQGNTLPWTFGQGTKVEIKRGGGGSGGRASGGGGSEVQLVESGGGLVQPGGSLRLSCAASGYSFTGYTMNWVRQAPGKGLEWVALINPYKGVSTYNQKFKDRFTISVDKSKNTAYLQMNSLRAEDTAVYYCARSGYYGDSDWYFDVWGQGTLVTVSSGGGGSDIELTQSPAIMSASPGEKVTITCSASSSVSYMHWFQQKPGTSPKLWIYSTSNLASGVPARFSGSGSGTSYSLTISRMEAEDAATYYCQQRSSYPLTFGAGTKLELKRAAAGGSGGTTYKLVINGKTLKGETTTKAVDAETAEKAFKQYANDNGVDGVWTYDDATKTFTVTEGGSHHHHHH
